According to article doi:10.1101/2024.12.23.629660:

Target: Arabidopsis thaliana Fatty Acid Thioesterase A (FatA) (Arabidopsis thaliana) (UniProt Q42561)
Experiment: crystal structure

Work on “Arabidopsis thaliana Fatty Acid Thioesterase A (FatA) (from UniProt Q42561 75-362) (enzyme)” yielded a stoichiometry N of 2.
